Results from patent publication US20150079071.

Tests used:
[1] = target: heat-shock protein 90β (HSP90β), endogenous, in conditioned medium of SCp2 cells (UniProt P11499)
[2] = system: recombinant HSP90β (385903, Calbiochem/EMD Millipore)

Sequence of Flag-tagged full-length human MMP3 (FL) (chain, as listed by the source): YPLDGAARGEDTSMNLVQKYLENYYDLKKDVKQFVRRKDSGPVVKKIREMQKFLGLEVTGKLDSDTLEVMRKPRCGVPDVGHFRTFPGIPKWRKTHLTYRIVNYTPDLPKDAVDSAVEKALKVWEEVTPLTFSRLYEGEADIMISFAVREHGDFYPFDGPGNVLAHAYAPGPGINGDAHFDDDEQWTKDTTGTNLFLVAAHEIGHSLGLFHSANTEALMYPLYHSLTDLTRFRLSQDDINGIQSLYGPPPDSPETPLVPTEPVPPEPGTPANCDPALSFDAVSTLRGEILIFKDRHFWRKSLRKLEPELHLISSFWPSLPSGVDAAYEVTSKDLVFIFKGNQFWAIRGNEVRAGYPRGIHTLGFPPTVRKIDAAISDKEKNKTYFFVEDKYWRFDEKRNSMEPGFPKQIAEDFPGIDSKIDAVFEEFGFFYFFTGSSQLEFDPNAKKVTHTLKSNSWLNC
Sequence of heat-shock protein 90β (HSP90β), endogenous, in conditioned medium of SCp2 cells (P11499 2-724): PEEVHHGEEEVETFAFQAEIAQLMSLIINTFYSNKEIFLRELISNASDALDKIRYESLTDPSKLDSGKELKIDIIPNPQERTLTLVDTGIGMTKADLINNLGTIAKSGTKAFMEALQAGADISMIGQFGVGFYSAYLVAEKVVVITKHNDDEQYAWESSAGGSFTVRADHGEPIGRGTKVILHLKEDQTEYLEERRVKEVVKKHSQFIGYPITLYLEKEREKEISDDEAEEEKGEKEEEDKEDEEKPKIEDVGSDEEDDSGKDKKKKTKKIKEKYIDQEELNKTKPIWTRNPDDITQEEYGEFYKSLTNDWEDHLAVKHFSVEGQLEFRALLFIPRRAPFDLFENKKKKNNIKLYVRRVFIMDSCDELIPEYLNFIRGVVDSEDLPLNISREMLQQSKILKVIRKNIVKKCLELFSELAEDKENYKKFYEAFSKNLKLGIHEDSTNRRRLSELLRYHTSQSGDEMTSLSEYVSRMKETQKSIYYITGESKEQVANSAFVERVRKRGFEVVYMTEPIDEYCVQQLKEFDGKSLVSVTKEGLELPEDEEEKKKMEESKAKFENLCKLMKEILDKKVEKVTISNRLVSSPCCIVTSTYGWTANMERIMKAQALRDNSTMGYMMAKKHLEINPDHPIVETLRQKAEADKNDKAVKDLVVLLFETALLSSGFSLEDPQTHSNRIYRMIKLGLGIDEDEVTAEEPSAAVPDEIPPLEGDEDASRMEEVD

Substance: Flag-tagged full-length human MMP3 (FL)
- invasion and branching (spatial network) of mammary organoids in 3D Col-1 gels with a function-blocking antibody against HSP90β [1]: blocking the extracellular HSP90β with inhibitory antibodies added to the medium abolished branching ability in all organoids, including controls
- invasion and branching (spatial network) of mammary organoids in 3D Col-1 gels with recombinant HSP90β [2]: The recombinant HSP90β added extracellularly enabled the secreted MMP3 to induce the most exuberant branched structures
